B1: unnamed (parent)
chain 1: ATCYCRTGRCATRESLSGVCEISGRLYRLCCR
chain 2: MKRARPSEDTFNPVYPYDTETGPPTVPFLTPPFVSPNGFQESPPGVLSLRLSEPLVTSNGMLALKMGNGLSLDEAGNLTSQNVTTVSPPLKKTKSNINLEISAPLTVTSEALTVAAAAPLMVAGNTLTMQSQAPLTVHDSKLSIATQGPLTVSEGKLALQTSGPLTTTDSSTLTITASPPLTTATGSLGIDLKEPIYTQNGKLGLKYGAPLHVTDDLNTLTVATGPGVTINNTSLQTKVTGALGFDSQGNMQLNVAGGLRIDSQNRRLILDVSYPFDAQNQLNLRLGQGPLFINSAHNLDINYNKGLYLFTASNNSKKLEVNLSTAKGLMFDATAIAINAGDGLEFGSPNAPNTNPLKTKIGHGLEFDSNKAMVPKLGTGLSFDSTGAITVGNKNNDKLTLWTTPAPSPNCRLNAEKDAKLTLVLTKCGSQILATVSVLAVKGSLAPISGTVQSAHLIIRFDENGVLLNNSFLDPEYWNFRNGDLTEGTAYTNAVGFMPNLSAYPKSHGKTAKSNIVSQVYLNGDKTKPVTLTITLNGTQETGDTTPSAYSMSFSWDWSGHNYINEIFATSSYTFSYIAQE
chain 3: MRRAAMYEEGPPPSYESVVSAAPVAAALGSPFDAPLDPPFVPPRYLRPTGGRNSIRYSELAPLFDTTRVYLVDNKSTDVASLNYQNDHSNFLTTVIQNNDYSPGEASTQTINLDDRSHWGGDLKTILHTNMPNVNEFMFTNKFKARVMVSRLPTKDNQVELKYEWVEFTLPEGNYSETMTIDLMNNAIVEHYLKVGRQNGVLESDIGVKFDTRNFRLGFDPVTGLVMPGVYTNEAFHPDIILLPGCGVDFTHSRLSNLLGIRKRQPFQEGFRITYDDLEGGNIPALLDVDAYQASLKDDTEQGGGGAGGSNSSGSGAEENSNAAAAAMQPVEDMNDHAIRGDTFATRAEEKRAEAEAAAEAAAPAAQPEVEKPQKKPVIKPLTEDSKKRSYNLISNDSTFTQYRSWYLAYNYGDPQTGIRSWTLLCTPDVTCGSEQVYWSLPDMMQDPVTFRSTRQISNFPVVGAELLPVHSKSFYNDQAVYSQLIRQFTSLTHVFNRFPENQILARPPAPTITTVSENVPALTDHGTLPLRNSIGGVQRVTITDARRRTCPYVYKALGIVSPRVLSSRTF

The assay covers variants of B1. Briefly: SPR. The settings on record: with partner chain of the complex shown, read off a plot; for Kd / screen value: steady-state binding curves at 80 sec of association time, 3-fold dilution series from 3 µM to 111 nM.
[1] abbreviates: defensin at 333 nM, immobilized rPenton (2115 RU), peak of sensorgram at end of association (about 180 sec).

With chain 1 T12A, under setting [1], the response turned out to be 630 RU. In addition, for the setting “immobilized rPenton (2115 RU)”, the Kd amounted to 1500 nM and the screen value is 2200 RU.
For chain 1 I22A, in that order: 490 RU, 1500 nM and 1600 RU.
For chain 1 R28A the same measures were 340 RU, 1300 nM and 1100 RU.
As for chain 1 L26A, under setting [1], the response was determined as 200 RU. In addition, for the setting “immobilized rPenton (2115 RU)”, the dissociation constant Kd came to 1300 nM and the screen value is 700 RU. Moreover, where the note is “steady-state response at 80 sec of association time, point at 3 µM defensin”, the response turned out to be 520 RU.
Take chain 1 V19A: the response under setting [1] came out at 260 RU. Moreover, the screen value (immobilized rPenton (2115 RU)) is 1200 RU.
In the case of chain 1 E21A, the response under setting [1] is 480 RU. Further, under “immobilized rPenton (2115 RU)”, the dissociation constant Kd was 1600 nM and the screen value was 1600 RU.
For chain 1 T7A, in that order: 690 RU, 1300 nM and 2100 RU.

Usually Kd stands for the free concentration of one partner at which half of the binding sites on the other are occupied at equilibrium, for simple one-to-one binding.

The values above are taken from article PMC4154873, “Delineation of Interfaces on Human Alpha-Defensins Critical for Human Adenovirus and Human Papillomavirus Inhibition” (PLoS Pathogens, 2014).
